Experimental data taken from patent publication US6673915.

Target: CC CKR2B stably expressed on HEK-293 cells (Example 10A) (human) (UniProt P41597)
Assay: cell-based or functional assay

Chain of CC CKR2B stably expressed on HEK-293 cells (Example 10A) (human) (P41597 whole entry): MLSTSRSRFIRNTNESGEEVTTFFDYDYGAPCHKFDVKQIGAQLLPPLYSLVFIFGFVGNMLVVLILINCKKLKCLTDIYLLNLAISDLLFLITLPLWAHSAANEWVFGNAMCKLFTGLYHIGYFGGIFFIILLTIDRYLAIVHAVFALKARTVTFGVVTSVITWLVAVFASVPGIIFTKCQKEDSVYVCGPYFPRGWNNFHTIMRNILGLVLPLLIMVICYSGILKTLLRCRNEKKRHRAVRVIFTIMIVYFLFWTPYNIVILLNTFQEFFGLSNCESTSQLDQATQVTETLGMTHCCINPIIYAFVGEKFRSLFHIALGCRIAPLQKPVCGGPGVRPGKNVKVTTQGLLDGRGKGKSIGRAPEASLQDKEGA
Chain of recombinant human MCP-4 with the mature N-terminal Gln (PeproTech), Q99616 24-98 (ligand) (Q99616 24-98): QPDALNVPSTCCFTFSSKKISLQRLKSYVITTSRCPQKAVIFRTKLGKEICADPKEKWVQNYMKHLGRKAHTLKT

recombinant human MCP-4 with the mature N-terminal Gln (PeproTech), Q99616 24-98 (ligand)
half-maximal effective concentration of calcium flux: 15 nM | saturation of calcium flux response: 100 nM
